Tested on: T1, Medicago sativa NAP1-like protein, 6×HIS-tagged, expressed in BL21 E. coli and purified on nickel agarose
T1 sequence: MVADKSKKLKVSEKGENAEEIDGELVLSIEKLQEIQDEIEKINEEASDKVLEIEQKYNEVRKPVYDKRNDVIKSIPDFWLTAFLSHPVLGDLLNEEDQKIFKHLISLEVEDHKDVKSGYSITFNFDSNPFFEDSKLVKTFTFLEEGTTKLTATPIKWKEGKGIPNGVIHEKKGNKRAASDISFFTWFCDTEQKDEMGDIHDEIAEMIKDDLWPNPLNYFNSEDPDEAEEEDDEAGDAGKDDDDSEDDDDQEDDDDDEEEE

Q: For “Protein Phosphatase 2A (PP2A) catalytic subunits purified from rabbit skeletal muscle”, which “PP2A activity on the phospho-histone H2A substrate (in vitro dephosphorylation of 32P-labelled substrate)” value is on record?
A: already 2.5 mM concentration of the NAP1-like protein efficiently inhibited PP2A activity on the phospho-histonH2A substrate (50% decrease in activity)

Q: And the “PP2A dephosphorylation of glycogen phosphorylase (in vitro, 32P-labelled substrate)” value?
A: the NAP1-like protein had no influence on the dephosphorylation of the glycogen phosphorylase even at 500 mM concentration

From US20100199379
